The target of the assay is TNF-alpha. Description: cell-based or functional assay. Also noted: unit not given beside the values.

Sequence of TNFR2-h(1)Fc (chain): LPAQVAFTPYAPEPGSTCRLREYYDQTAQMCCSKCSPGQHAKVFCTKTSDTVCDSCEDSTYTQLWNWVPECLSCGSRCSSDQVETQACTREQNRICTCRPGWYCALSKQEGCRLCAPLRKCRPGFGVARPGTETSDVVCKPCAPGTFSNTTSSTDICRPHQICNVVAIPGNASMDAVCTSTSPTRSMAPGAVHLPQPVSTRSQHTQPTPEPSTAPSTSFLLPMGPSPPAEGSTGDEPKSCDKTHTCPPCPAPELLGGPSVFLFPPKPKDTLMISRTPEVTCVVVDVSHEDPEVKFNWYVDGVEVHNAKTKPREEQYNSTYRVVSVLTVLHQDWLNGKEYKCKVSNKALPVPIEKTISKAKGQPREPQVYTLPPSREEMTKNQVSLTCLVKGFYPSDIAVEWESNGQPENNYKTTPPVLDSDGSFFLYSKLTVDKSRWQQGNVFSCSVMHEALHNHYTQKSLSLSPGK

Turning to E155N G253N TNFR2-h(1)Fc (Fc fusion), the IC50 (WEHI Assay), normalized (normalized to TNFR2-h(1)Fc wt) amounted to 0.57.
For the substance S202N G253N TNFR2-h(1)Fc (Fc fusion), the IC50 (WEHI Assay), normalized (normalized to TNFR2-h(1)Fc wt) came out at 0.23.
Next, D47N/G253N TNFR2-h(1)Fc (Fc fusion): 3; D47N TNFR2-h(1)Fc (Fc fusion): 1.9; “E155N S202N G253N TNFR2-h(1)Fc (Fc fusion)”: 0.25.
For TNFR2-h(1)Fc (Fc fusion), the IC50 (WEHI Assay), normalized (normalized to TNFR2-h(1)Fc wt) was 1.
Turning to T203N P205S TNFR2-h(1)Fc (Fc fusion), the IC50 (WEHI Assay), normalized (normalized to TNFR2-h(1)Fc wt) is 0.29.
Substance D47N/E155N TNFR2-h(1)Fc (Fc fusion) showed an IC50 (WEHI Assay), normalized (normalized to TNFR2-h(1)Fc wt) of 1.6.
With T222N TNFR2-h(1)Fc (Fc fusion) the figure was 0.25.
For D47N S202N TNFR2-h(1)Fc (Fc fusion), the IC50 (WEHI Assay), normalized (normalized to TNFR2-h(1)Fc wt) was 1.1.

The record behind these values is patent US20110171218A1.
